Results published in paper PMC4740795, “Mechanistic insights into the recognition of 5-methylcytosine oxidation derivatives by the SUVH5 SRA domain”.

Assays:
SUVH5 SRA domain [1] = target: T1, SUVH5 SRA domain (Arabidopsis, UniProt O82175 362-528); assay: ITC; N fixed to 0.5; 3-fold higher concentrations; ITC: 40 mM Tris-HCl pH 7.5, 50 mM NaCl, 2 mM b-mercaptoethanol, 25 C; FP: 20 mM Tris-HCl pH 7.5, 50 mM NaCl, 1 mM DTT, 20 C; EMSA: 25 mM Tris-HCl pH 7.5, 5% glycerol, 60 mM NaCl, 10 mM MgCl2, 0.4 mg/mL BSA, 2 mM DTT; settings: protein: recombinant; tags: His6-SUMO, cleaved with Ulp1; chain copies: 2; self-complementary, 2 copies of strand
T1 sequence: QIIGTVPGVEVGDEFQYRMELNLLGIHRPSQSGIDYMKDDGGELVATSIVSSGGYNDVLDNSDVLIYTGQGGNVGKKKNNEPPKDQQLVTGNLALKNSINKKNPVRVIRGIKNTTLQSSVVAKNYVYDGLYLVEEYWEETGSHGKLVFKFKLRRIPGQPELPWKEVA

UHRF1 SRA domain = target: T2, UHRF1 SRA domain (mammalian? (species ), UniProt Q96T88-2 427-630); assay: fluorescence polarization; 20 C; ITC: 40 mM Tris-HCl pH 7.5, 50 mM NaCl, 2 mM b-mercaptoethanol, 25 C; FP: 20 mM Tris-HCl pH 7.5, 50 mM NaCl, 1 mM DTT, 20 C; EMSA: 25 mM Tris-HCl pH 7.5, 5% glycerol, 60 mM NaCl, 10 mM MgCl2, 0.4 mg/mL BSA, 2 mM DTT; settings: protein: recombinant; tags: His6-SUMO, cleaved with Ulp1; label: 5'-6FAM
T2 sequence: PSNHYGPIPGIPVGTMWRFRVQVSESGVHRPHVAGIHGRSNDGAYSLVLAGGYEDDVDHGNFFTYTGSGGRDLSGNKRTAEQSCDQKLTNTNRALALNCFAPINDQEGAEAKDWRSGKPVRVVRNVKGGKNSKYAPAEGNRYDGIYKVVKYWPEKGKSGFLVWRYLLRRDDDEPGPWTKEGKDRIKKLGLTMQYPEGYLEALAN

SUVH5 SRA domain [2] = target: T1, SUVH5 SRA domain; assay: X-ray crystal structure (2.6 A); 2:1 complex, dual 5hmC flip-out; ITC: 40 mM Tris-HCl pH 7.5, 50 mM NaCl, 2 mM b-mercaptoethanol, 25 C; FP: 20 mM Tris-HCl pH 7.5, 50 mM NaCl, 1 mM DTT, 20 C; EMSA: 25 mM Tris-HCl pH 7.5, 5% glycerol, 60 mM NaCl, 10 mM MgCl2, 0.4 mg/mL BSA, 2 mM DTT; settings: protein: recombinant; tags: His6-SUMO, cleaved with Ulp1; chain copies: 2; self-complementary, 2 copies of strand; 3' T overhang
SUVH5 SRA domain [3] = target: T1, SUVH5 SRA domain; assay: ITC; N = 0.52; ITC: 40 mM Tris-HCl pH 7.5, 50 mM NaCl, 2 mM b-mercaptoethanol, 25 C; FP: 20 mM Tris-HCl pH 7.5, 50 mM NaCl, 1 mM DTT, 20 C; EMSA: 25 mM Tris-HCl pH 7.5, 5% glycerol, 60 mM NaCl, 10 mM MgCl2, 0.4 mg/mL BSA, 2 mM DTT; settings: protein: recombinant; tags: His6-SUMO, cleaved with Ulp1; chain copies: 2; self-complementary, 2 copies of strand
SUVH5 SRA domain [4] = target: T1, SUVH5 SRA domain; assay: ITC; N fixed to 0.5; endothermic; 3-fold higher concentrations; ITC: 40 mM Tris-HCl pH 7.5, 50 mM NaCl, 2 mM b-mercaptoethanol, 25 C; FP: 20 mM Tris-HCl pH 7.5, 50 mM NaCl, 1 mM DTT, 20 C; EMSA: 25 mM Tris-HCl pH 7.5, 5% glycerol, 60 mM NaCl, 10 mM MgCl2, 0.4 mg/mL BSA, 2 mM DTT; settings: protein: recombinant; tags: His6-SUMO, cleaved with Ulp1; chain copies: 2; self-complementary, 2 copies of strand
SUVH5 SRA domain [5] = target: T1, SUVH5 SRA domain; assay: ITC; N = 0.48; ITC: 40 mM Tris-HCl pH 7.5, 50 mM NaCl, 2 mM b-mercaptoethanol, 25 C; FP: 20 mM Tris-HCl pH 7.5, 50 mM NaCl, 1 mM DTT, 20 C; EMSA: 25 mM Tris-HCl pH 7.5, 5% glycerol, 60 mM NaCl, 10 mM MgCl2, 0.4 mg/mL BSA, 2 mM DTT; settings: protein: recombinant; tags: His6-SUMO, cleaved with Ulp1; chain copies: 2; self-complementary, 2 copies of strand
SUVH5 SRA domain [6] = target: T1, SUVH5 SRA domain; assay: ITC; ITC: 40 mM Tris-HCl pH 7.5, 50 mM NaCl, 2 mM b-mercaptoethanol, 25 C; FP: 20 mM Tris-HCl pH 7.5, 50 mM NaCl, 1 mM DTT, 20 C; EMSA: 25 mM Tris-HCl pH 7.5, 5% glycerol, 60 mM NaCl, 10 mM MgCl2, 0.4 mg/mL BSA, 2 mM DTT; settings: protein: recombinant; tags: His6-SUMO, cleaved with Ulp1; chain copies: 2

B1: fully-5caCG duplex (ITC) (dsDNA)
DNA 1: CAGCTCGAGCTG
DNA 2: CAGCTCGAGCTG
modifications: 5caC at central CG, both strands
SUVH5 SRA domain [1]
  Kd: ~150 µM

B2: hemi-5mCG 12-mer (dsDNA)
DNA 1: CCATGCGCTGAC
DNA 2: GTCAGCGCATGG
modifications: X = 5mC, one strand
UHRF1 SRA domain
  Kd: 0.35 µM

B3: fully-5hmCG 10-mer with 3'-T overhang (crystal) (dsDNA)
DNA 1: ACTACGTAGTT
DNA 2: ACTACGTAGTT
modifications: 5hmC at position 5, both strands
SUVH5 SRA domain [2]
  binding result: binds

B4: fully-5hmCG duplex (ITC) (dsDNA)
DNA 1: CAGCTCGAGCTG
DNA 2: CAGCTCGAGCTG
modifications: 5hmC at central CG, both strands
SUVH5 SRA domain [3]
  Kd: 1.5 ± 0.12 µM

B5: fully-5fCG duplex (ITC) (dsDNA)
DNA 1: CAGCTCGAGCTG
DNA 2: CAGCTCGAGCTG
modifications: 5fC at central CG, both strands
SUVH5 SRA domain [4]
  Kd: ~125 µM

B6: fully-5mCG duplex (ITC) (dsDNA)
DNA 1: CAGCTCGAGCTG
DNA 2: CAGCTCGAGCTG
modifications: 5mC at central CG, both strands
SUVH5 SRA domain [5]
  Kd: 1.2 ± 0.09 µM

B7: hemi-5hmCG duplex (ITC) (dsDNA)
DNA 1: CCATGCGCTGAC
DNA 2: GTCAGCGCATGG
modifications: 5hmC at central CG, one strand
SUVH5 SRA domain [6]
  Kd: 7.6 ± 0.6 µM
